Residue numbers refer to the chain shown, from its start. In names and notes the source's numbering stands.
Legend:
Format in all cases: biochemical, Alcaligenes faecalis
[1] = substrate: CC1(C)S[C@@H]2[C@H](NC(=O)COc3ccccc3)C(=O)N2[C@H]1C(=O)O; assay: Deacylation kinetics and phenylacetic acid product inhibition, wild type PenG acylase; conditions: other: wild type; 40 mM NaH2PO4, pH 7.5, 37° C.; pH 7.5; 37.0 °C
Procedure: (§1) In order to determine enzymatic activity the acylases were incubated with substrate at room temperature in buffered solution. In case β-lactamase impurity was expected to be present in the enzyme preparations, 1.0 mM -lactamase inhibitor 6-bromo-penicillanic acid was added to the assay. The reactions were stopped by adding an excess PMSF. For some mutants which were less sensitive to PMSF inhibition, the reactions were stopped by adding 0.5 M HCl or 0.5 M acetic acid until the pH was between 3 and 4. When reactions were subsequently analysed by HPLC, the reactions were stopped by dilution with the correponding elution solvent (see table 1). In addition substrates were incubated under assay conditions in absence of enzyme. If necessary enzyme assays were corrected for non-enzymatic hydrolysis
(§2) The composition of the reaction mixtures was determined by high-performanceliquid chromatography (HPLC)(table 1). Concentrations were determined by using standards of known concentration.
(§3) In a continuous assay Penicillin G acylase was assayed spectro-fotometrically with the chromogenic substrate NIPAB [6-nitro-3-phenylacetamido-benzoic acid]. The liberation of 3-amino-6-nitrobenzoic acid was monitored by measuring the extinction at 405 nm in a Kontron 610 kinetic spectrofotometer. […] Initial rate measurements were performed with varying concentration of NIPAB.
(§4) The kinetics of enzymatic hydrolysis of PenG, PenV, CefG were also studied by alkaline titration (0, OlM KOH), using a Radiometer pH-stat. All experiments were carried out in a buffer free medium.
(§5) Initial rate measurements were performed with excess substrate over the enzyme. Catalytic parameters were derived from least-squares fitting of the measured initial rates plotted for various substrate concentrations according to the Michaelis-Menten equation.
(§6) The complete conversion of NIPAB was followed as a funtion of time at 20, 50 and 100 μM NIPAB by following the increase in absorbtion at 405 nm. Products of this conversion are phenylacetic acid and 3-amino-6-nitrobenzoic acid. […] The progress curves of the deacylation of NIPAB could be fitted very well when product inhibition by phenylacetic acid was taken into account. The dissociation constants (usually referred to as inhibition constant Ki) for phenylacetic acid which could be derived from the progress curves is shown in table 11. For these mutants the yield of the conversion in a fixed time span is higher than for wild type. Alternatively, in order to obtain a certain yield a shorter conversion time is needed for the mutants.

[2] = substrate: CC1(C)S[C@@H]2[C@H](NC(=O)Cc3ccccc3)C(=O)N2[C@H]1C(=O)O; assay: as above; conditions: other: wild type; 40 mM NaH2PO4, pH 7.5, 37° C.; pH 7.5; 37.0 °C
Procedure: as §1, §2, §3, §4, §5, §6

[3] = substrate: CC1(C)S[C@@H]2[C@H](NC(=O)[C@H](N)c3ccc(O)cc3)C(=O)N2[C@H]1C(=O)O; assay: as above; conditions: other: wild type; 20 mM NaH2PO4, pH 7.0, 37° C.; pH 7.0; 37.0 °C
Procedure: as §1, §2, §3, §4, §5, §6

[4] = substrate: CC1(C)S[C@@H]2[C@H](NC(=O)[C@H](N)c3ccccc3)C(=O)N2[C@H]1C(=O)O; assay: as above; conditions: other: wild type; 20 mM NaH2PO4, pH 7.0, 37° C.; pH 7.0; 37.0 °C
Procedure: as §1, §2, §3, §4, §5, §6

[5] = substrate: CC1=C(C(=O)O)N2C(=O)[C@@H](NC(=O)Cc3ccccc3)[C@H]2SC1; assay: as above; conditions: other: wild type; 20 mM NaH2PO4, pH 7.5, 37° C.; pH 7.5; 37.0 °C
Procedure: as §1, §2, §3, §4, §5, §6

[6] = substrate: NC(=O)[C@H](N)c1ccccc1; assay: as above; conditions: other: wild type; 20 mM NaH2PO4, pH 7.0, 37° C.; pH 7.0; 37.0 °C
Procedure: as §1, §2, §3, §4, §5, §6

[7] = substrate: O=C(Cc1ccccc1)Nc1ccc([N+](=O)[O-])c(C(=O)O)c1; assay: as above; conditions: other: wild type; 0.1M NaH2PO4, pH 7.5, 25° C.; pH 7.5; 25.0 °C
Procedure: as §1, §2, §3, §4, §5, §6

[8] = substrate: CC1(C)S[C@@H]2[C@H](NC(=O)COc3ccccc3)C(=O)N2[C@H]1C(=O)O; assay: Deacylation kinetics and phenylacetic acid product inhibition, mutant A:M143V; conditions: other: A:M143V; 40 mM NaH2PO4, pH 7.5, 37° C.; pH 7.5; 37.0 °C
Procedure: as §1, §2
(§7) In a continuous assay Penicillin G acylase was assayed spectro-fotometrically with the chromogenic substrate NIPAB [6-nitro-3-phenylacetamido-benzoic acid]. The liberation of 3-amino-6-nitrobenzoic acid was monitored by measuring the extinction at 405 nm in a Kontron 610 kinetic spectrofotometer. […] Initial rate measurements were performed with varying concentration of NIPAB. […]
as §5, §6

[9] = substrate: CC1(C)S[C@@H]2[C@H](NC(=O)Cc3ccccc3)C(=O)N2[C@H]1C(=O)O; assay: as above; conditions: other: A:M143V; 40 mM NaH2PO4, pH 7.5, 37° C.; pH 7.5; 37.0 °C
Procedure: as §1, §2, §7, §5, §6

[10] = substrate: CC1(C)S[C@@H]2[C@H](NC(=O)[C@H](N)c3ccc(O)cc3)C(=O)N2[C@H]1C(=O)O; assay: as above; conditions: other: A:M143V; 20 mM NaH2PO4, pH 7.0, 37° C.; pH 7.0; 37.0 °C
Procedure: as §1, §2, §7, §5, §6

[11] = substrate: CC1(C)S[C@@H]2[C@H](NC(=O)[C@H](N)c3ccccc3)C(=O)N2[C@H]1C(=O)O; assay: as above; conditions: other: A:M143V; 20 mM NaH2PO4, pH 7.0, 37° C.; pH 7.0; 37.0 °C
Procedure: as §1, §2, §7, §5, §6

[12] = substrate: CC1=C(C(=O)O)N2C(=O)[C@@H](NC(=O)Cc3ccccc3)[C@H]2SC1; assay: as above; conditions: other: A:M143V; 20 mM NaH2PO4, pH 7.5, 37° C.; pH 7.5; 37.0 °C
Procedure: as §1, §2, §7, §5, §6

[13] = substrate: NC(=O)[C@H](N)c1ccccc1; assay: as above; conditions: other: A:M143V; 20 mM NaH2PO4, pH 7.0, 37° C.; pH 7.0; 37.0 °C
Procedure: as §1, §2, §7, §5, §6

[14] = substrate: O=C(Cc1ccccc1)Nc1ccc([N+](=O)[O-])c(C(=O)O)c1; assay: as above; conditions: other: A:M143V; 0.1M NaH2PO4, pH 7.5, 25° C.; pH 7.5; 25.0 °C
Procedure: as §1, §2, §7, §5, §6

[15] = substrate: CC1(C)S[C@@H]2[C@H](NC(=O)COc3ccccc3)C(=O)N2[C@H]1C(=O)O; assay: Deacylation kinetics, mutant A:F147Y; conditions: other: A:F147Y; 40 mM NaH2PO4, pH 7.5, 37° C.; pH 7.5; 37.0 °C
Procedure: as §1, with “In” for “In order to determine enzymatic activity the acylases were incubated with substrate at room temperature in buffered solution. In”
as §2, §3, §4, §5

[16] = substrate: CC1(C)S[C@@H]2[C@H](NC(=O)Cc3ccccc3)C(=O)N2[C@H]1C(=O)O; assay: Deacylation kinetics, mutant A:F147Y; conditions: other: A:F147Y; 40 mM NaH2PO4, pH 7.5, 37° C.; pH 7.5; 37.0 °C
Procedure: as §1, with “In” for “In order to determine enzymatic activity the acylases were incubated with substrate at room temperature in buffered solution. In”
as §2, §3, §4, §5

[17] = substrate: CC1(C)S[C@@H]2[C@H](NC(=O)[C@H](N)c3ccc(O)cc3)C(=O)N2[C@H]1C(=O)O; assay: Deacylation kinetics, mutant A:F147Y; conditions: other: A:F147Y; 20 mM NaH2PO4, pH 7.0, 37° C.; pH 7.0; 37.0 °C
Procedure: as §1, with “In” for “In order to determine enzymatic activity the acylases were incubated with substrate at room temperature in buffered solution. In”
as §2, §3, §4, §5

[18] = substrate: CC1(C)S[C@@H]2[C@H](NC(=O)[C@H](N)c3ccccc3)C(=O)N2[C@H]1C(=O)O; assay: Deacylation kinetics, mutant A:F147Y; conditions: other: A:F147Y; 20 mM NaH2PO4, pH 7.0, 37° C.; pH 7.0; 37.0 °C
Procedure: as §1, with “In” for “In order to determine enzymatic activity the acylases were incubated with substrate at room temperature in buffered solution. In”
as §2, §3, §4, §5

[19] = substrate: CC1=C(C(=O)O)N2C(=O)[C@@H](NC(=O)Cc3ccccc3)[C@H]2SC1; assay: Deacylation kinetics, mutant A:F147Y; conditions: other: A:F147Y; 20 mM NaH2PO4, pH 7.5, 37° C.; pH 7.5; 37.0 °C
Procedure: as §1, with “In” for “In order to determine enzymatic activity the acylases were incubated with substrate at room temperature in buffered solution. In”
as §2, §3, §4, §5

[20] = substrate: NC(=O)[C@H](N)c1ccccc1; assay: Deacylation kinetics, mutant A:F147Y; conditions: other: A:F147Y; 20 mM NaH2PO4, pH 7.0, 37° C.; pH 7.0; 37.0 °C
Procedure: as §1, with “In” for “In order to determine enzymatic activity the acylases were incubated with substrate at room temperature in buffered solution. In”
as §2, §3, §4, §5

[21] = substrate: O=C(Cc1ccccc1)Nc1ccc([N+](=O)[O-])c(C(=O)O)c1; assay: Deacylation kinetics, mutant A:F147Y; conditions: other: A:F147Y; 0.1M NaH2PO4, pH 7.5, 25° C.; pH 7.5; 25.0 °C
Procedure: as §1, with “In” for “In order to determine enzymatic activity the acylases were incubated with substrate at room temperature in buffered solution. In”
as §2, §3, §4, §5

B1: Alcaligenes faecalis Penicillin G acylase, wild type (α subunit SEQ ID NO:27, β subunit SEQ ID NO:32) (Alcaligenes faecalis) (protein)
chain 1: QVQSVEVMRDSYGVPHVFADSHYGLYYGYGYAVAQDRLFQMDMARRSFVGTTAAVLGPGEQDAYVKYDMQVRQNFTPASIQRQIAALSKDERDIFRGYADGYNAYLEQVRRRPELLPKEYVDFDFQPEPLTDFDVVMIWVGSMANRFSDTNLEVTALAMRQSLEKQHGPERGRALFDELLWINDTTAPTTVPAPAAEHKPQA
chain 2: SNLWSTRPERVQEGSTVLINGPQFGWYNPAYTYGIGLHGAGFDVVGNTPFAYPIVLFGTNSEIAWGATAGPQDVVDIYQEKLNPSRADQYWFNNAWRTMEQRKERIQVRGQADREMTIWRTVHGPVMQFDYDQGAAYSKKRSWDGYEVQSLLAWLNVAKARNWTEFLDQASKMAISINWYYADKHGNIGYVSPAFLPQRPADQDIRVPAKGDGSMEWLGIKSFDAIPKAYNPPQGYLVNWNNKPAPDKTNTDTYYWTYGDRMNELVSQYQQKDLFSVQEIWEFNQKASYSDVNWRYFRPHLEKLAQQLPADDSSKAALTMLLAWDGMEQDQGGQNAGPARVLFKTWLEEMYKQVLMPVVPESHRAMYSQTGFATQQGPNPGSINLSMGTKVLLRALVLEAHPDPKRVNVFGERSSQEIMHTALQNAQARLSQEQGAQMARWTMPTSVHRFSDKNFTGTPQTMPGNTFAFTGYQNRGTENNRVVFDAKGVEFCDAMPPGQSGFTDRNGVRSPHYEDQLKLYENFECKTMDVTHADIRRNAQSSTMLLIQPQP
notes: alpha 202 aa, beta 551 aa; likely recombinant, E. coli host
Km [1]: 18 µM
Vmax [1]: 4.0 U/mg
Km [2]: 2 µM
Vmax [2]: 45.5 U/mg
Km [3]: 14000 µM
Vmax [3]: .9 U/mg
Km [4]: 700 µM
Vmax [4]: 23.5 U/mg
Km [5]: 1 µM
Vmax [5]: 12.5 U/mg
Km [6]: 8600 µM
Vmax [6]: 27.5 U/mg
Km [7]: 4 µM
Vmax [7]: 37.0 U/mg

B2: Alcaligenes faecalis Penicillin G acylase mutant A:M143V (Alcaligenes faecalis; M169V) (protein)
chain 1: B1 chain 1 with M143V
chain 2: B1 chain 2
notes: alpha 202 aa, beta 551 aa; recombinant, E. coli host
Km [8]: 31 µM
Vmax [8]: 10.3 U/mg
Km [9]: 6 µM
Vmax [9]: 40.5 U/mg
Km [10]: 21000 µM
Vmax [10]: .2 U/mg
Km [11]: 1500 µM
Vmax [11]: 23.0 U/mg
Km [12]: 7 µM
Vmax [12]: 56.4 U/mg
Km [13]: 35000 µM
Vmax [13]: 22.2 U/mg
Km [14]: 17 µM
Vmax [14]: 35.7 U/mg

B3: Alcaligenes faecalis Penicillin G acylase mutant A:F147Y (Alcaligenes faecalis; F173Y) (protein)
chain 1: B1 chain 1 with F147Y
chain 2: B1 chain 2
notes: as for B2
Km [15]: 51 µM
Vmax [15]: 0.8 U/mg
Km [16]: 4 µM
Vmax [16]: 5.9 U/mg
Km [17]: 19000 µM
Vmax [17]: 0.1 U/mg
Km [18]: 2600 µM
Vmax [18]: 13.6 U/mg
Km [19]: 6 µM
Vmax [19]: 4.0 U/mg
Km [20]: 1700 µM
Vmax [20]: 32.7 U/mg
Km [21]: 5 µM
Vmax [21]: 18.0 U/mg
